Changes are numbered by the printed parent chain.
Legend:
human CD98hc [1] = molecular target: T1, human CD98hc (human, UniProt P08195 109-529); assay: SPR (Biacore); format not stated
T1 construct: The construct used on the Biacore is not described; also called CD98 heavy chain; 4F2 heavy chain
T1 sequence: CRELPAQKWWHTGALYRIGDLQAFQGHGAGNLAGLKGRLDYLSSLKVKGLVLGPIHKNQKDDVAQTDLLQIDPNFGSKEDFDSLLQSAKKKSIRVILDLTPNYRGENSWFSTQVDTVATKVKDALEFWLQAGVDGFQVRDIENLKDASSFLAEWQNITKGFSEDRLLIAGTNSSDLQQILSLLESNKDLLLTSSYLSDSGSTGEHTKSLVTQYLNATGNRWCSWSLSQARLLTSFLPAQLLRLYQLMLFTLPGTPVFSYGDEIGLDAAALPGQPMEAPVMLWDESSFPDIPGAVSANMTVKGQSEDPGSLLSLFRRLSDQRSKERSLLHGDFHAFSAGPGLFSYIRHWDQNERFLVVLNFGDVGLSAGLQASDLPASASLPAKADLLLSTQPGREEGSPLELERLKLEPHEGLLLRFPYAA
Description: A second round of affinity maturation using phage display was performed to increase the affinity of the LLB1 family to CD98hc (Table 11). The backbone of the library was the clone LLB1-3. Library LLB1-AM3 expands the library positions from the original clone using NHK or ARY. Library LLB1-AM4 expands the libraries and includes a mixture of residues that were found previously at those positions in the LLB1 family. The library was assembled using Kunkel mutagenesis and screened to human CD98hc. […] The format was anti-BACE1 Fabs having full effector function and in a bivalent format (i.e., no knob and hole mutations). Cell binding of the clones was also tested in HeLa cells for huCD98hc binding, CHO:cyCD98hc cells for cyno binding, and CHO cells as a negative control.

human CD98hc [2] = molecular target: T2, human CD98hc (human, UniProt P08195 109-529); assay: affinity as listed in study design table; method not given there
T2 construct: also called huCD98hc; CD98 heavy chain
T2 sequence: T1 sequence

human CD98hc [3] = molecular target: T2, human CD98hc; assay: as above; remark: listed apart in the source
human CD98hc [4] = molecular target: T2, human CD98hc; assay: as above; remark: listed apart in the source
[5] = molecular target: T3, circularly permuted cyno TfR apical domain (cynomolgus monkey, biotin on the Avi tag); assay: SPR
T3 construct: a linker between the two segments is not described; also called cyTfR apical domain; not shown: Avi tag and PreScission site left after Ulp1 cleavage
T3 chain: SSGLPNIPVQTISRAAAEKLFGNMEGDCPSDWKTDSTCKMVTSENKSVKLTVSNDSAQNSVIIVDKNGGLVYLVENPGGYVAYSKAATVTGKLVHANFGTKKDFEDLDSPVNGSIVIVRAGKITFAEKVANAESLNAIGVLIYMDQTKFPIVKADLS
Description: (§1) Biacore™ Series S CM5 sensor chips were immobilized with anti-human Fab (GE Healthcare, 28958325). Molecules were captured on each flow cell and serial 3-fold dilutions of human TfR apical domain (2, 0.67, 0.22, 0.074, 0.025, and 0 μM) and cynomologous TfR apical domain (4, 1.3, 0.44, 0.15, 0.05, and 0 μM) were injected at a flow rate of 30 μL/min using single cycle kinetics method. Each sample was analyzed with a 60-second association and a 3-minute dissociation. After each cycle, the chip was regenerated using 10 mM glycine-HCl (pH 2.1) for 30 seconds at 50 μL/min. Binding response was corrected by subtracting the RU from a reference flow cell. A 1:1 Langmuir model of simultaneous fitting of kₒₙ and koff was used for kinetics analysis using Biacore™ 8K Evaluation Software. Table 32A below summarizes the binding affinities of selected clones for human and cynomolgus TfR apical domains.
(§2) The phage library was panned against biotinylated human TfR apical domain immobilized to magnetic streptavidin beads. Four rounds of phage panning were performed and enriched clones were sequenced. Unique hits were cloned onto an anti-BACE1 hIgG1 monoclonal antibody containing the “LALA” mutations, expressed in HEK293 cells, and purified by protein A chromatography. Affinity to human and cyno TfR apical domain was measured by SPR. Clones were evaluated for TfR-specific cell binding (FIGS. 43A and 43B).

[6] = molecular target: T4, circularly permuted human TfR apical domain (human, biotin on the Avi tag); assay: SPR
T4 construct: a linker between the two segments is not described; also called huTfR apical domain; not shown: Avi tag and PreScission site left after Ulp1 cleavage
T4 chain: T3 chain with K39R, N45S, S47N, G69R, D108Y, S109T, K153N, D155E
Description: as §1, §2

[7] = molecular target: T5, cynomolgus monkey TfR on CHO cells (cynomolgus monkey, UniProt Q5RDH6 1-760 (Pongo abelii entry)); assay: cell uptake at 37 C into CHO cells expressing cynomolgus monkey TfR, anti-human IgG staining, imaging (corrected spot intensity)
T5 construct: also called CHO:cyTfR; cyTfR expressing cells
T5 chain: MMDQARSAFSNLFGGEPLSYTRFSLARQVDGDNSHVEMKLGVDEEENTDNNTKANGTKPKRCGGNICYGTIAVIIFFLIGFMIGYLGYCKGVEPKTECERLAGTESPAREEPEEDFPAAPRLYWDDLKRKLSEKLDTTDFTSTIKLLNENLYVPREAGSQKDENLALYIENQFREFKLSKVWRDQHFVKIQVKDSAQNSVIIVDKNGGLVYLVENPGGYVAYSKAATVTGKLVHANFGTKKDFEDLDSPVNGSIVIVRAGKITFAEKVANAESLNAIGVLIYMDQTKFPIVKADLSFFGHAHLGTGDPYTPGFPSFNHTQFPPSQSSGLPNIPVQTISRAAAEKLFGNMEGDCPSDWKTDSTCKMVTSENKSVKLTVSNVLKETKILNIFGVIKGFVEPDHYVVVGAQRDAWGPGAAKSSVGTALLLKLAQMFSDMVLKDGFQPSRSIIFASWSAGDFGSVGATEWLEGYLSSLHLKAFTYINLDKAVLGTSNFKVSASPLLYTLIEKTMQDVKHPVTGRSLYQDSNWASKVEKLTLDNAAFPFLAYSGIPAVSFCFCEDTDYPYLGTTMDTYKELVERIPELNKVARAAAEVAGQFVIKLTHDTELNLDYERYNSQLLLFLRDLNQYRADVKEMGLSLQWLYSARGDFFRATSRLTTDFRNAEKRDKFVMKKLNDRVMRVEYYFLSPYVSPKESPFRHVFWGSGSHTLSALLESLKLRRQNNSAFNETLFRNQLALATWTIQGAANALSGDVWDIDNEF
Description: (§3) HEK293T, CHO:cyTfR, and CHO cells were plated at 40,000 cells/well of 96-well plates in standard growth media (DMEM (Gibco™ 11995073)+10% FBS (VWR 89510⁻¹⁸⁸)+1×Pen/Strep (Gibco 15140122)). Approximately 24 hours later, molecules were diluted into standard growth media warmed to 37° C. Old media was removed from the cells, and the diluted molecules were added to the cells. Cells were incubated at 37° C. for 45 minutes. Cells were then washed with PBS and then fixed for 10 minutes in 4% PFA (Electron Microscopy Sciences 15714-S). Cells were washed with PBS and then blocked with 5% BSA, 0.3% TritonX100 in PBS for 30 minutes. […] Cells were washed with PBS, imaged on an Opera Phenix, and images were analyzed with Harmony software.

[8] = molecular target: T6, human TfR on HEK293T cells (human, UniProt P02786 1-760); assay: cell uptake at 37 C into HEK293T human TfR positive cells, anti-human IgG staining, imaging (corrected spot intensity)
T6 construct: also called huTfR expressing cells; human TfR-positive cells
Description: as §3

TfR [9] = molecular target: T7, TfR (Homo sapiens (Human), UniProt P02786 121-760, limits assumed); assay: Biacore, control sample kept in PBS
T7 construct: also called transferrin receptor
Description: (§4) Clone 6.5.11.5.42.2, with and without LS mutations, was assessed for low pH stability during developability assessment. The tested proteins are bivalent Fc-Fab fusion polypeptides comprising an anti-HER2 Fab domain linked to two Fc polypeptides each having the sequence of the identified clone and LALA mutations, with LS mutations or without LS mutations. An Fc control containing the anti-HER2 Fab domain linked to an Fc domain with LALA mutations and without TfR-binding sites was included for comparison.
(§5) Aliquots (100 μL) of each clone were added to wells of a 96-well plate containing 6 μL of 5% (v/v) acetic acid and mixed well. The plate was sealed and incubated at room temperature for about three (3) hours. Subsequently, 35 μL of 1 M Tris HCl (pH 7.5) was added to the samples and mixed well. The plate was sealed once again and incubated at room temperature for 24 hours. Control condition was storage in 1× PBS without any change in pH during incubation. The samples were then analyzed by Biacore for binding affinity and by size exclusion chromatography to detect intact fusion protein. FIG. 22 and Table 26 provide the results of the analyses.

TfR [10] = molecular target: T7, TfR; assay: Biacore, after low pH hold and neutralisation
Description: as §4, §5

B1: LLB1-3-25-2 (Fc fusion)
chain: APELLGGPSVFLFPPKPKDTLMISRTPEVTCVVVDVSHEDPEVKFNWYVDGVEVHNAKTKPREEQYNSTYRVVSVLTVLHQDWLNGKEYKCKVSNKALPAPIEKTISKAKGQPREPQVYTLPPSRDELTKNQVSLTCLVKGFYPSDIAVEWRTYKPYETNYKTTPPVLDSDGSFFLYSKLTVDKSRWQQGDIFVCDVMHEALHNHFTIKKLSLSPGK
notes: a difference, if any, lies outside the printed positions
Kd (human CD98hc [1]): 160 nM

B2: Clone 1: LLB2-10-8 bivalent, BACE1 Fabs (Fc fusion)
chain: APELLGGPSVFLFPPKPKDTLMISRTPEVTCVVVDVSHEDPEVKFNWYVDGVEVHNAKTKPREEQYNSTYRVVSVLTVLHQDWLNGKEYKCKVSNKALPAPIEKTISKAKGQPREPQVYTLPPSRDELTKNQVSLTCLVKGFYPSDIAVLWNSRFVLENNYKTTPPVLDSDGSFFLYSKLTVDKSRWQQGEIFACNVYHEALHNHYTFKNLALSPGK
notes: bivalent; effector positive
Kd (human CD98hc [2]): 100 to 200 nM

B3: Clone 26: LLB2-10-8 bivalent, non-binding Fabs (Fc fusion)
chain: B2 chain
notes: bivalent; effector positive
Kd (human CD98hc [3]): 100 to 200 nM | Kd (human CD98hc [4]): 100 to 200 nM

B4: Clone 33: LLB2-10-8-d6 bivalent, non-binding Fabs (Fc fusion)
chain: B2 chain with E191N, I192V
notes: bivalent; effector positive
Kd (human CD98hc [4]): 550 nM

B5: Clone 28: LLB2-37 bivalent, non-binding Fabs (Fc fusion)
chain: B2 chain with R154Q, V156H, E191N, A212L
notes: bivalent; effector positive
Kd (human CD98hc [3]): 390 nM

B6: Clone 36: LLB2-10-8 bivalent, non-binding Fabs, effector negative (Fc fusion)
chain: B2 chain with L4A, L5A, P99G
Kd (human CD98hc [4]): 100 to 200 nM

B7: Clone 38: LLB2-10-8-d6 bivalent, non-binding Fabs, effector negative (Fc fusion)
chain: B2 chain with L4A, L5A, P99G, E191N, I192V
Kd (human CD98hc [4]): 550 nM

B8: Clone 1 with LALA (Fc fusion)
chain: APEAAGGPSVFLFPPKPKDTLMISRTPEVTCVVVDVSHEDPEVKFNWYVDGVEVHNAKTKPREEQYNSTYRVVSVLTVLHQDWLNGKEYKCKVSNKALPAPIEKTISKAKGQPREPQVYTLPPSRDELTKNQVSLTCLVKGFYPSDIAVKWGSEVAPENNYKTTPPVLDSDGSFFLYSKLTVDKSRWQQGNIFACTVMHEALHNHYTLKMLSLSPGK
notes: Fc part only
Kd [5]: 1800 nM | Kd [6]: 480 nM | binding result [7]: binds | binding result [8]: binds

B9: Clone 3 with LALA (Fc fusion)
chain: B8 chain with K150L, E154A, I192V, L208V, M210G
notes: Fc part only
Kd [5]: 6000 nM | Kd [6]: 1500 nM | binding result [7]: binds | binding result [8]: binds

B10: 42.2 LALA (bivalent clone 6.5.11.5.42.2 with LALA, anti-HER2 Fab) (Fc fusion)
chain: APEAAGGPSVFLFPPKPKDTLMISRTPEVTCVVVDVSHEDPEVKFNWYVDGVEVHNAKTKPREEQYNSTYRVVSVLTVLHQDWLNGKEYKCKVSNKALPAPIEKTISKAKGQPREPQVYTLPPSRDELTKNQVSLTCLVKGFYPSDIAVEWFSDGSKETNYKTTPPVLDSDGSFFLYSKLTVDKSRWQQGNLFACEVMHEALHNHYTYKLLSLSPGK
Kd (TfR [9]): 1170 nM | Kd (TfR [10]): 1180 nM

B11: 42.2 LALA LS (bivalent clone 6.5.11.5.42.2 with LALA and LS, anti-HER2 Fab) (Fc fusion)
chain: B10 chain with M198L, N204S
Kd (TfR [9]): 1700 nM | Kd (TfR [10]): 1810 nM

— patent US20250145729A1 (DENALI THERAPEUTICS, published 2025)
